Series [1] concerns the target hnRNP A1 (UniProt P09651). The series can be described thus: footprinting (Pb(II)). Conditions: Footprinting: RNA refolded in 2 mM MgCl2, 80 mM NaCl, 20 mM Tris-HCl pH 7.2; probing at 37 C for 10 min; EMSA and pull-down buffers not in the material. On the technique in general: A gel shift assay detects complexes by their altered migration in electrophoresis.
In series [2] the target is hnRNP A1 (UniProt P09651). The series can be described thus: competition. Conditions: Footprinting: RNA refolded in 2 mM MgCl2, 80 mM NaCl, 20 mM Tris-HCl pH 7.2; probing at 37 C for 10 min; EMSA and pull-down buffers not in the material.
Chain of hnRNP A1 (P09651 whole entry): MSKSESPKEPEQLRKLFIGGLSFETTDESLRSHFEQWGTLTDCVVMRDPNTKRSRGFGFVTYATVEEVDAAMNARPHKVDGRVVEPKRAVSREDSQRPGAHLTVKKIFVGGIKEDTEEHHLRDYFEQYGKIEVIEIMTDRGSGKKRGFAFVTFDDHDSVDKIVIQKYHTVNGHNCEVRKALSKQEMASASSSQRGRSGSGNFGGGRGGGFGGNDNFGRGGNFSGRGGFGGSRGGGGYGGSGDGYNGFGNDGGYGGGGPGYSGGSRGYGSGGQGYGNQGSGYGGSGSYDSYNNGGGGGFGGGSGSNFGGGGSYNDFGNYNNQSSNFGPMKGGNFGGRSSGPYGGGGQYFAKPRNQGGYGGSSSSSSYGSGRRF

The text below walks through data of publication PMC2631628.

Regarding “GGUGUUCUAAGGUGCAUCUAGUGCAGAUAGUGAAGUAGAUUAGCAUCUACUGCCCUAAGUGCUCCUUCUGGCA [pri-miR-18a_73nt]”, the binding entry in series [1] is listed as “binds”.
Consider “GGCGUGCAGGGCCUGCUGAUGUUGAGUGCUUUUUGUUCUAAGGUGCAUCUAGUGCAGAUAGUGAAGUAGAUUAGCAUCUACUGCCCUAAGUGCUCCUUCUGGCAUAAGAAGUUAUGUAUUCAUCCAAUAAUUC [pri-miR-18a]”, for which, in series [2], the binding entry is given as “binds”.
